Ends that are not written are not given here.

Common to all, as to experiment: EIA; Ab 7.813 ng/mL captured on anti-mouse Fc; bt-peptide 500 ng/mL
In test [1] the target is T1, WT1STHV biotin labeled HCV core peptide (hepatitis C virus, biotin labeled).
T1 peptide: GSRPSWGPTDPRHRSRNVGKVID

The target in test [2] is T2, Mut1T110N biotin labeled HCV core peptide (hepatitis C virus, biotin labeled).
T2 peptide: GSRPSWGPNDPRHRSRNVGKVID

For test [3], the target named is Mut6T110S biotin labeled HCV core peptide (hepatitis C virus).
The target in test [4] is T3, C113WT biotin labeled HCV core peptide (hepatitis C virus, also: biotin labeled, position not given here).
T3 peptide: RGSRPSWGPTD

For test [5], the target named is T4, C113T109N biotin labeled HCV core peptide (hepatitis C virus, also: biotin labeled, position not given here).
T4 peptide: RGSRPSWGPND

B1: HCV Neo4 monoclonal antibody (antibody, V domains shown)
VH: QIQLKESGPAVIKPSQSLSLTCIVSGFSITSSVYCWQWIRQPPGKGLEWMGRICYDGSVDYSPSITSRGTISRDTSLNKVFFQLSSVTNEDTAMYYCSRENHIDYYDTTYPSFDVWGAGTTVTVSS
VL: DIVLTQSPASLIVSLGQRATISCRASKSVNEYGYTYMHWYQQKPGLPPKLLIYLASNLDSGVPARFSGSGSGTDFTLNIHPVEEEDAATYYCQHSRELPYTFGGGTKLEIKR
On to B1, for which the “signal at 492 nm” value in test [1] is 1.04 OD 492 nm; in test [2], 0.0729 OD 492 nm; in test [3], 0.132 OD 492 nm; in test [4], 0.0731 OD 492 nm; in test [5] it was 0.0751 OD 492 nm.
